In patent publication US20050065080A1, “Use of leptin in fertility” (priority 2001, published 2005):

Key:
LH = experiment: Serum LH radioimmunoassay in antide-treated mice; type: in vivo, mouse
Experimental: Leptin induces the GnRH release from the Hypothalamus, which in turn releases FSH and LH from the Pituitary glands (Yu et al. 1997). To test if the follicle development and ovulation induced in the antide-treated C57BL mice and ob/ob mice by leptin is mediated by LH release, serum LH as well as progesterone, which is an LH-induced marker was measured. Measurement of plasma murine LH (mLH) and progesterone were carried out with specific radioimmunoassays. Progesterone was determined in mouse sera by RIA (Kohen 1975). LH was determined in mouse by a specific RIA, obtained trough the National Hormone & Pituitary Program, harbor-UCLA Medical Center (Torrance, California). The levels of mLH were below 0.2 ng/ml in all cases (Table 2). The levels of LH remained low throughout the follicular growth and ovulation in leptin-treated mice. However, it is difficult to detect the LH surge even in positive controls. Therefore, measurement of the LH-induced serum progesterone serve as a more reliable marker of circulating LH.

C57BL/6 mice = experiment: Ovulation induction in antide-treated prepubertal C57BL/6 mice (oocyte count); type: in vivo, mouse; settings: for Oocyte count in C57BL/6 mice: antide-treated, PMSG at 0 h, leptin or hCG at 48 h, oocytes counted at 72 h, range
Experimental: (§1) In the present example, ovulation was studied in ob/ob mice and in prepubertal C57BL/6 mice. All mice were treated with antide to prevent induction of LH by leptin. […] Following the various treatments, mice were sacrificed and oocytes were collected from the ampoule at 72 hours from the first injection and counted.
(§2) Similarly a group of ob/ob mice were injected with PMSG (3 IU/animal) and after 48 h with leptin (2×5 μg/g weight). […] Ovulation was monitored by counting oocytes in the oviducts under the microscope.

ob/ob mice [1] = experiment: Follicular development in antide-treated ob/ob mice (hematoxylin-eosin ovarian sections); type: in vivo, mouse; settings: for follicular growth in ovarian sections: single agent
Experimental: The effect of leptin in follicular development was studied in ob/ob mice that were treated with the GnRH antagonist antide (Phillips et al. 1988). It is therefore expected that following administration of leptin to antide treated mice, as opposed to non-treated mice, release of LH or FSH from the pituitary gland will not occur.
8-10 week-old obese C57B1-ob/ob female mice were all injected (time 0) with antide (1.25 μg/g body weight). Mice were divided into several groups. A control group was injected with saline only. A second group was injected with murine leptin (ip,2×5 μg/g body weight purchased from R&D systems) at times 0 and 9 h. A third group was injected with pregnant mare serum gonadotropins (PMSG, 3 IU/mice, sc). A fourth group received a combination of both PMSG and leptin. Mice were sacrificed at 9, 24, and 48 and 72 h following the first treatment, the ovaries were excised, paraffin-fixed and stained with hematoxylin-eosin to visualize follicular and ovarian growth.

uterus = experiment: Appearance of the uterus in treated mice; type: in vivo, mouse; settings: for uterus distension and hyperemia: after PMSG, or PMSG followed by hCG or leptin, leptin: ob/ob mice that ovulated
ob/ob mice [2] = experiment: Ovulation induction in antide-treated ob/ob mice (oocyte count); type: in vivo, mouse; settings: for Oocyte count in ob/ob mice: antide-treated, PMSG at 0 h, leptin or hCG at 48 h, oocytes counted at 72 h, range
Experimental: as §1, §2

ADAMTS-1 = ADAMTS-1 expression in cultured pre-ovulatory follicles (quantitative RT-PCR); type: cell-based, mouse; settings: 17 h; leptin 250 ng/ml or hCG 1 IU; normalized to ribosomal protein L19; FIG. 2
Experimental: Pre-ovulatory follicles were removed, cultured and further treated for 17 h in the absence or presence of either leptin (250 ng/ml) or hCG (1 IU). Total RNA was isolated from the follicles and subjected to quantitative RT-PCR using the LightCycler™ (Roche diagnostics). The primers used for the detection of murine ADAMTS-1 transcripts were:

progesterone = experiment: Serum progesterone radioimmunoassay in ob/ob and C57BL/6 mice; type: in vivo, mouse; settings: PMSG at time 0, agent at 48 h, RIA at 72 h; FIG. 1
Experimental: Mice were treated with PMSG at time 0 and the indicated agent at 48 h. Progesterone was determined by RIA at 72 h in sera of C57BL/6 mice (grey bars) and of ob/ob mice (open bars).

Cathepsin L = Cathepsin L expression in cultured pre-ovulatory follicles (quantitative RT-PCR); type: cell-based, mouse; settings: 17 h; not statistically significant
Excerpt: Total RNA was isolated from the follicles and subjected to quantitative RT-PCR with specific primers for two proteases, ADAMTS-1 and Cathepsin L. The PCR products were resolved in agarose gel electrophoresis and scanned. The RNAs levels of ADAMTS-1 were normalized to the RNAs levels of ribosomal protein
To test whether leptin can induce the expression of ADAMTS-1 and cathepsin L by acting directly on the ovary, in vitro experiments were preformed on pre-ovulatory follicles obtained from 21 days old C57BL/6 mice treated with PMSG (3 IU/animal) for 48 h. […] Total RNA was isolated from the follicles and subjected to quantitative RT-PCR using the LightCycler™ (Roche diagnostics). The primers used for the detection of murine ADAMTS-1 transcripts were: […]
The RNAs levels of ADAMTS-1 and cathepsin L detected in agarose gel electrophoresis of the PCR products were normalized to the RNAs levels of murine ribosomal protein L19

[3] = antide + PMSG (48 h) then leptin or hCG (24 h)

Molecule: antide [reference compound]
- Serum LH (LH; antide-treated mice, 72 h): 0.04 ± 0.01 ng/mL
- Oocyte count in C57BL/6 mice (C57BL/6 mice): 0
- follicular growth in ovarian sections (ob/ob mice [1]; antide-treated ob/ob mice): only early stages of follicular growth

Molecule: pregnant mare serum gonadotropins [PMSG, reference compound]
- Serum LH (LH; antide + PMSG, 60 h): 0.2 ng/mL
- Serum LH (LH; antide-treated mice, 72 h): 0.09 ± 0.01 ng/mL
- uterus distension and hyperemia (uterus): maximal distension
- Oocyte count in C57BL/6 mice (C57BL/6 mice): 0
- Oocyte count in ob/ob mice (ob/ob mice [2]): 0 oocytes per mouse
- follicular growth in ovarian sections (ob/ob mice [1]; antide-treated ob/ob mice): large antral follicles were formed at 72 h

B1: leptin (protein, UniProt P41160 22-167, looked up)
Leptin: VPIQKVQDDTKTLIKTIVTRINDISHTQSVSAKQRVTGLDFIPGLHPILSLSKMDQTLAVYQQVLTSLPSQNVLQIANDLENLRDLLHLLAFSKSCSLPQTSGLQKPESLDGVLEASLYSTEVVALSRLQGSLQDILQQLDVSPEC
notes: murine leptin purchased from R&D systems; adipocyte-secreted protein encoded by the obese (ob) gene
- Serum LH (LH; antide + PMSG 48 h then leptin 12 h): 0.17 ± 0 ng/mL
- Serum LH (LH; antide + PMSG 48 h then leptin 24 h): 0.057 ± 0.01 ng/mL
- Serum LH (LH; antide + leptin, 9 h): 0.05 ng/mL
- Serum LH (LH; antide + leptin, 24 h): 0.06 ± 0.01 ng/mL
- Serum LH (LH; antide + leptin, 48 h): 0.07 ± 0.04 ng/mL
- Serum LH (LH; antide-treated mice, 72 h): 0.04 ± 0.01 ng/mL
- induction of ADAMTS-1 RNA (ADAMTS-1): significant induction
- uterus distension and hyperemia (uterus): remained hyperemic, exhibiting maximal distension
- uterine features (uterus; antide-treated C57BL/6 mice): same uterine features, were also observed
- uterus hyperemia (uterus; leptin in the absence of PMSG): rendered the uterus hyperemic
- mice ovulated, C57BL/6 mice (C57BL/6 mice; [3]): 7 out of 7 mice
- Oocyte count in C57BL/6 mice (C57BL/6 mice): (2-7)
- serum progesterone (progesterone): lack of significant progesterone synthesis
- ovulation (oocytes in the oviducts) (ob/ob mice [2]; PMSG then agent at 48 h, summary of Table 1): ovulation was observed
- mice ovulated, ob/ob mice (ob/ob mice [2]; [3]): 3 out of 5 mice ovulated
- Oocyte count in ob/ob mice (ob/ob mice [2]): (range 1-6 oocytes per oocytes per mouse
- ovarian growth (ob/ob mice [1]; antide-treated ob/ob mice, concomitant PMSG and leptin, after 72 h): an interstitial cell growth and further ovarian growth were observed
- time at which large follicles could be observed after initiation of treatment (ob/ob mice [1]; antide-treated ob/ob mice, as early as): 9 h
- follicular growth in ovarian sections (ob/ob mice [1]; antide-treated ob/ob mice): induced rapid follicular growth
- corpora lutea in the ovaries (ob/ob mice [1]; ob/ob mice, PMSG at time 0 and leptin instead of hCG at 48 h, seen at 72 h): corpora lutea were also seen
- induction of Cathepsin L RNA (Cathepsin L): Marginal induction
